Measurements reported in patent US20100035825A1 (University of California, published 2010).
Where a chain is given by its changes, count along the chain named.

B1: C/EBPβ-HA-Glu^217 (other, not shown: small tags and cut ends)
chain: MHRLLAWDAACLPPPPAAFRPMEVANFYYEPDCLAYGAKAARAAPRAPAAEPAIGEHERAIDFSPYLEPLAPAADFAAPAPAHHDFLSDLFADDYGAKPSKKPADYGYVSLGRAGAKAAPPACFPPPPPAALKAEPGFEPADCKRADDAPAMAAGFPFALRAYLGYQATPSGSSGSLSTSSSSSPPGTPSPADAKAAPAACFAGPPAAPAKAKAKKEVDKLSDEYKMRRERNNIAVRKSRDKAKMRNLETQHKVLELTAENERLQKKVEQLSRELSTLRNLFKQLPEPLLASAGHC
B2: C/EBPβ-PThr^217 (mouse C/EBPβ phosphorylated on Thr217) (other)
chain: B1 chain with E217T
modifications: phosphothreonine at 217
notes: Endogenous, phosphorylated in stellate cells after CCl4 or on collagen type I
B3: purified recombinant procaspase 8 (human, Alexis Biochemicals) (enzyme, UniProt Q14790 217-479, looked up)
chain: SESQTLDKVYQMKSKPRGYCLIINNHNFAKAREKVPKLHSIRDRNGTHLDAGALTTTFEELHFEIKPHDDCTVEQIYEILKIYQLMDHSNMDCFICCILSHGDKGIIYGTDGQEAPIYELTSQFTGLKCPSLAGKPKVFFIQACQGDNYQKGIPVETDSEEQPYLEMDLSSPQTRYIPDEADFLLGMATVNNCVSYRNPAEGTWYIQSLCQSLRERCPRGDDILTILTEVNYEVSNKDDKKNMGKQMPQPTFTLRKKLVFPSD
notes: also called recombinant caspase 8; procaspases 8; not shown: 21 amino acid linker at the N-terminus from the expression vector
B4: procaspase 3 (endogenous, mouse hepatic stellate cells) (enzyme, UniProt P70677 1-277, looked up)
chain: MENNKTSVDSKSINNFEVKTIHGSKSVDSGIYLDSSYKMDYPEMGICIIINNKNFHKSTGMSSRSGTDVDAANLRETFMGLKYQVRNKNDLTREDILELMDSVSKEDHSKRSSFVCVILSHGDEGVIYGTNGPVELKKLTSFFRGDYCRSLTGKPKLFIIQACRGTELDCGIETDSGTDEEMACQKIPVEADFLYAYSTAPGYYSWRNSKDGSWFIQSLCSMLKLYAHKLEFMHILTRVNRKVATEFESFSLDSTFHAKKQIPCIVSMLTKELYFYH
notes: also called effector procaspase 3

Key:
[1] = target: T1, procaspase 1 (endogenous, mouse hepatic stellate cells) (mouse, UniProt P29452 1-402); experiment: anti-HA co-immunoprecipitation and immunoblot, transfected activated stellate cells
T1 construct: also called procaspases 1
T1 sequence (looked up): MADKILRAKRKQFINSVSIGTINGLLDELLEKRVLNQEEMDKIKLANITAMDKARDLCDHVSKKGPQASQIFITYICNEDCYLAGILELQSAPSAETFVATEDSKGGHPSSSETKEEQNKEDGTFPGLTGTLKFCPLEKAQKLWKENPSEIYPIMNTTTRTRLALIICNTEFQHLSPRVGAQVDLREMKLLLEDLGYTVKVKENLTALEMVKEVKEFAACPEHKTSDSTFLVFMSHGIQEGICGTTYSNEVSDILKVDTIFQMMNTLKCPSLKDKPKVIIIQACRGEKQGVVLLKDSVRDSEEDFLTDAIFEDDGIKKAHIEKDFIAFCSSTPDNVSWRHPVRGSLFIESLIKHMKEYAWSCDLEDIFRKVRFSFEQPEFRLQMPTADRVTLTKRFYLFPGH
Source text: (§1) The expressed peptides were immunoprecipitated with anti-HA antibodies.

[2] = target: T2, procaspase 8 (endogenous, mouse hepatic stellate cells) (mouse, UniProt O89110 1-480); experiment: as above
T2 construct: also called procaspases 8
T2 sequence (looked up): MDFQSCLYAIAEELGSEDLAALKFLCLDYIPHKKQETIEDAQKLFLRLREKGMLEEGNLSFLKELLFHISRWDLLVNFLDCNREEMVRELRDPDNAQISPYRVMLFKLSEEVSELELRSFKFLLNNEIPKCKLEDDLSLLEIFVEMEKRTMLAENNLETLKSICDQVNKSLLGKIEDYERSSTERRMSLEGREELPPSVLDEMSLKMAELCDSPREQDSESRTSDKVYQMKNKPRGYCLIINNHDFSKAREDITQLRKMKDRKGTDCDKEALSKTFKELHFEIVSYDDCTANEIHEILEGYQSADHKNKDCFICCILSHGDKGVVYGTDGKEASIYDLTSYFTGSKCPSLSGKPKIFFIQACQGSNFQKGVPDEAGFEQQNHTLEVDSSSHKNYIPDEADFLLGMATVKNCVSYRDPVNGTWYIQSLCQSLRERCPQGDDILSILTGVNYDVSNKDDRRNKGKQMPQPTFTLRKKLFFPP
Source text: as §1

[3] = target: B3; experiment: co-immunoprecipitation of purified recombinant proteins (C/EBPβ peptides 200 µM), immunoblot, densitometry; reference C/EBPβ-HA-Ala217
[4] = target: T3, procaspase 7 (endogenous, mouse hepatic stellate cells) (mouse, UniProt P97864 1-303); experiment: C/EBPβ immunoprecipitation and immunoblot, stellate cells of CCl4-treated C/EBPβ+/+ mice
T3 construct: also called effector procaspase 7
T3 sequence (looked up): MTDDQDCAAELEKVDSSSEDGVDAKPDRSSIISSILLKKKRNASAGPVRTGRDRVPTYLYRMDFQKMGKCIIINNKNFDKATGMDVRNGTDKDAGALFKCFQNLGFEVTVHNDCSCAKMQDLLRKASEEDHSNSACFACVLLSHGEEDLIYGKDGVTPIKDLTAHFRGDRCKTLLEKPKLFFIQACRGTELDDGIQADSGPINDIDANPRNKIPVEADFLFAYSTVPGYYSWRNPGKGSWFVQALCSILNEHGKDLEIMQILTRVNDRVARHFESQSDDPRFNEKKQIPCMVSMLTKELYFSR

[5] = target: T4, procaspase 9 (endogenous, mouse hepatic stellate cells) (mouse, UniProt Q8C3Q9 1-454); experiment: as above
T4 construct: also called effector procaspase 9
T4 sequence (looked up): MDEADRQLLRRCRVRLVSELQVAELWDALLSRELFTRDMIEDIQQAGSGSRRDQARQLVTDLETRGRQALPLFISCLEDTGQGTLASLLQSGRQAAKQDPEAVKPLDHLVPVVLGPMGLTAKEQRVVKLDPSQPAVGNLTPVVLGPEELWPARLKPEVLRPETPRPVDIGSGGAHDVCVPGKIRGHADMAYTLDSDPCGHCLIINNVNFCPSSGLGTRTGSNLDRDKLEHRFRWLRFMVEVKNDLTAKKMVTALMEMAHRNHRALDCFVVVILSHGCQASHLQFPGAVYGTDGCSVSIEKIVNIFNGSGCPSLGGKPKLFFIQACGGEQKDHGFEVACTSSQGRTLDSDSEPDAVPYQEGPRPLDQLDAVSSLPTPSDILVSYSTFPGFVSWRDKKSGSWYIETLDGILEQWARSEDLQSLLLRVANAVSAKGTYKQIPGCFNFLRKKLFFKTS

C/EBPβ-HA-Ala^217 = target: T5, C/EBPβ-HA-Ala^217 (mouse, UniProt P28033 1-296, limits assumed); experiment: co-immunoprecipitation of purified recombinant proteins
T5 construct: not shown: HA (hemagglutinin) tag
T5 sequence: B1 chain with E217A

[6] = target: B2; experiment: C/EBPβ immunoprecipitation and immunoblot, stellate cells of CCl4-treated C/EBPβ+/+ mice

## B1
[1]
  binding result: binds
[2]
  binding result: binds
[3]
  fold more co-immunoprecipitated than the Ala^217 peptides (densitometry): 12 fold

## B2
[4]
  binding result: no binding
[5]
  binding result: no binding

## B3
C/EBPβ-HA-Ala^217
  binding result: no binding

## B4
[6]
  binding result: no binding
